Results as given in patent publication US20030206891A1, “Rapamycin-based biological regulation” (ARIAD Gene Therapeutics, Inc., priority 1995, published 2003).

Tests used:
[1] = target: 1FRB-p65(361-550) (human) (UniProt P42345); experiment: cell-based or functional assay
[2] = target: His6-flag-FKBP protein alone (ethanol, no drug) (human); experiment: phage display affinity enrichment: 1 µM His6-flag-FKBP with ethanol alone, Ni-NTA agarose capture, acid elution
[3] = target: His6-flag-FKBP protein with FK506 (human); experiment: phage display affinity enrichment: 1 µM His6-flag-FKBP plus FK506, Ni-NTA agarose capture, acid elution
Sequence of His6-flag-FKBP protein with FK506 (human) (chain, as listed by the source limits assumed): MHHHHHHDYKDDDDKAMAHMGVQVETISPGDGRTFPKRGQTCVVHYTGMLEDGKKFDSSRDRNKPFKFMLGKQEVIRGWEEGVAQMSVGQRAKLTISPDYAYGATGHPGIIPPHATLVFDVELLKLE

[4] = target: His6-flag-FKBP protein with rapamycin (human); experiment: phage display affinity enrichment: FRAP phagemids mixed with pBC control phagemids, 1 µM His6-flag-FKBP plus rapamycin, Ni-NTA agarose capture, acid elution
Sequence of His6-flag-FKBP protein with rapamycin (human) (chain, as listed by the source limits assumed): as above

Sequence of His6-flag-FKBP protein alone (ethanol, no drug) (human) (chain, as listed by the source limits assumed): as above

| Substance | SEAP activity of the stable clone at 1100 nM rapamycin (arbitrary fluorescence units) [1] | SEAP activity of the stable clone, no rapamycin (mock transfected cells 47 units) (arbitrary fluorescence units) [1] | SEAP secretion, enhancement with rapamycin over background [1] [fold] | SEAP secretion, transiently transfected HT1080 cells: lowest rapamycin concentration with detectable signal [1] [nM] | SEAP secretion, transiently transfected HT1080 cells: rapamycin concentration of the peak [1] [nM] | fold enrichment of FRAP phage compared to the starting mixture (carb/chlor cfu ratio) [2] [fold] | fold enrichment of FRAP phage compared to the starting mixture (carb/chlor cfu ratio) [3] [fold] | fold enrichment of FRAP phage compared to the starting mixture (carb/chlor cfu ratio) [4] [fold] |
| --- | --- | --- | --- | --- | --- | --- | --- | --- |
| ZFHD1-3FKBP (from UniProt P62942 1-107; P62942 1-107; P62942 1-107) | > 90000 | 54 | > 1000 | 0.5 | 5 | – | – | – |
| phagemids displaying FRAP (amino acids 2015-2114) (from UniProt P42345 2015-2114; P03661 216-424) | – | – | – | – | – | 1.5 | 2.4 | 271 |
